Experimental findings from article PMC2953525, “Subtle Alterations in PCNA-Partner Interactions Severely Impair DNA Replication and Repair” (PLoS Biology, 2010) are described below.

Experiment [1] relates to mutated Rad30 PIP peptide. As to the kind of experiment: Yeast surface display of PCNA, PIP peptide binding by flow cytometry. The settings on record: peptide with the two conserved phenylalanines mutated to alanine. Here is the method:
(§1) Briefly, EBY100 transformed with plasmid pCTCON-PCNA were grown in SDCAA media to logarithmic phase and 2×10^6 of cells were washed, resuspended in SGCAA induction media, and grown at 20°C with shaking for an additional 18 h. Induced cells (1×10^6) were collected by centrifugation, washed with PBSF (PBS+ 1 g/L BSA), and incubated for 1 h at 25°C with mouse α-Myc antibodies (Santa Cruz Biotechnology, 1 µl/50 µl PBSF) and 100–400 µM of biotinylated PIP peptide (Peptron, see Figure S1 for peptide sequences). […] The labeled cells were washed, resuspended with PBSF, and analyzed by flow cytometry (FACS Calibur, BD).
(§2) Supplementary file pbio.1000507.s003.pdf: Figure S3 Yeast surface display of PCNA. […] Expression is detected through fluorescent antibody binding to the c-Myc epitope tag (light blue) while binding of the biotinylated PIP peptide (orange) is detected using fluorescently-labeled streptavidin (green). […] The specificity of PCNA binding for PIP peptides was detected following incubation with biotinylated PIP peptide derived from Rad30 (B and D) and mutated Rad30 in which the two conserved phenylalanine residues of the PIP peptide are mutated to alanine (C), followed by incubation with allophycocyanin (APC)-labeled streptavidin (y-axis). […]
Background: In flow cytometry, cells or beads pass a laser one at a time.

Another experiment has as its system Rad30 PIP peptide. Described as above. As to conditions: biotinylated peptide, APC-streptavidin, compared with WT PCNA / Rad30 PIP peptide. Here is the method:
as §1, §2

A further experiment relates to PCNA-Rad30 complex. Put plainly: ELISA for PCNA-partner complexes extracted from yeast cells. The class given is binding. As to conditions: ELISA of yeast extracts, GFP signal normalized to immobilized PCNA signal; averages of at least 5 independent repeats. From the text: (§3) To examine whether increased PCNA-partner interaction affinities result in increased PCNA-partner complex formation in vivo in pol30 mutant strains, we analyzed the levels of these complexes extracted from yeast cells. We used strains expressing the pol30 mutants as a sole source of PCNA in the cell under the control of the native POL30 promoter (see below). We immobilized PCNA from the crude yeast extracts onto ELISA plates and analyzed the amount of bound partner, relative to the amount of total PCNA immobilized on the plate (Figure 4).
(§4) Figure 4 Increased levels of in vivo PCNA-partner complex formation in the pol30-Rad30E2 or the pol30-Rad27E6 mutant strains, relative to the POL30 strain. (A). ELISA experimental set-up for the detection of PCNA-partner complexes extracted directly from WT and mutant PCNA strains. The assay is based on the immobilization of PCNA-partner complex using anti-PCNA antibody-coated ELISA plates. Detection of complex levels is performed using antibodies against the GFP fused to the C-terminal of the PCNA partner. […]
(§5) Yeast cell extracts were generated from 0.5 L of logarithmic cultures using conventional methods. […] Following centrifugation, cell extracts were collected and protein concentration was determined by the BCA method. […] PCNA-partner complex levels were calculated as the ratio of the GFP signal to the PCNA signal detected for the same cell extract. […]
Background: An ELISA detects its analyte on a solid surface through an enzyme-linked reagent.

The subject of another experiment is PCNA-Rad27 complex. The experiment is described as above. The class given is binding. As to conditions: ELISA of yeast extracts, GFP signal normalized to immobilized PCNA signal; averages of at least 5 independent repeats.
From the text: as §3, §4, §5

Take “POL30: wild-type yeast PCNA (POL30), IDCL sequence DIDADFLKIEEL”: in experiment [1], the “binding to a mutated Rad30 PIP peptide (yeast surface display)” value is listed as “dramatic reduction in binding affinity”.

B1: pol30-79: previously studied PCNA mutant with decreased partner binding, IDCL sequence DIDADFAKAEEL (protein)
chain: MLEAKFEEASLFKRIIDGFKDCVQLVNFQCKEDGIIAQAVDDSRVLLVSLEIGVEAFQEYRCDHPVTLGMDLTSLSKILRCGNNTDTLTLIADNTPDSIILLFEDTKKDRIAEYSLKLMDIDADFAKAEELQYDSTLSLPSSEFSKIVRDLSQLSDSINIMITKETIKFVADGDIGSGSVIIKPFVDMEHPETSIKLEMDQPVDLTFGAKYLLDIIKGSSLSDRVGIRLSSEAPALFQFDLKSGFLQFFLAPKFNDEE
modifications: left off: Gal4 activation domain, end not stated, kept
Consider B1, for which the “binding to the Rad30 PIP peptide (yeast surface display)” value in the experiment with Rad30 PIP peptide was “dramatic reduction in binding affinity”.

B2: pol30-Rad30E2: PCNA mutant evolved for Rad30, IDCL sequence DDDWDFLKILEL (protein)
chain: MLEAKFEEASLFKRIIDGFKDCVQLVNFQCKEDGIIAQAVDDSRVLLVSLEIGVEAFQEYRCDHPVTLGMDLTSLSKILRCGNNTDTLTLIADNTPDSIILLFEDTKKDRIAEYSLKLMDDDWDFLKILELQYDSTLSLPSSEFSKIVRDLSQLSDSINIMITKETIKFVADGDIGSGSVIIKPFVDMEHPETSIKLEMDQPVDLTFGAKYLLDIIKGSSLSDRVGIRLSSEAPALFQFDLKSGFLQFFLAPKFNDEE
modifications: left off: Gal4 activation domain, end not stated, kept
For the molecule B2, the “increase in PCNA-Rad30 complex formation relative to the POL30 WT strain” value in the experiment on PCNA-Rad30 complex is recorded as 70%.

B3: pol30-Rad27E6: PCNA mutant evolved for Rad27, IDCL sequence DGDYDILKIREL (protein)
chain: MLEAKFEEASLFKRIIDGFKDCVQLVNFQCKEDGIIAQAVDDSRVLLVSLEIGVEAFQEYRCDHPVTLGMDLTSLSKILRCGNNTDTLTLIADNTPDSIILLFEDTKKDRIAEYSLKLMDGDYDILKIRELQYDSTLSLPSSEFSKIVRDLSQLSDSINIMITKETIKFVADGDIGSGSVIIKPFVDMEHPETSIKLEMDQPVDLTFGAKYLLDIIKGSSLSDRVGIRLSSEAPALFQFDLKSGFLQFFLAPKFNDEE
modifications: left off: Gal4 activation domain, end not stated, kept
B3: the “increase in PCNA-Rad27 complex formation relative to the POL30 WT strain” value in the experiment on PCNA-Rad27 complex came to 17%.
